One assay concerns the target T1, CD24-GST (Homo sapiens, UniProt P25063).
T1 construct: cluster of differentiation 24 (CD24) fused to GST; also called GST-CD24
T1 chain: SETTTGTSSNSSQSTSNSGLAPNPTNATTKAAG
Put plainly: SPR; Biacore X100; CD24-GST flowed over immobilized antibody; 1:1 binding model; procedure as in ref. 45. The settings on record: both partners purified. (In general: In SPR one partner is held on a chip, and binding of the other changes the refractive index at the surface.)

The target in assay [1] is T2, membrane CD24 on hepatoma cells (Huh-7, BEL-7402) (Homo sapiens, UniProt P25063).
T2 construct: cluster of differentiation 24 (CD24), GPI-linked membrane protein, endogenous on human hepatoma cell lines; also called CD24 receptors; CD24 ligand; source: endogenous, on Huh-7 and BEL-7402 cells
T2 chain: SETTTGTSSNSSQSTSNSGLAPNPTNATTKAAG
Put plainly: flow cytometry on cells; antibody on Huh-7 and BEL-7402 hepatoma cells, also after RNA interference against CD24; procedure as in ref. 12. As to conditions: one partner purified. On the technique in general: A flow cytometer gives signals particle by particle.

B1: chimeric antibody cG7 (antibody, V domains shown)
VH: QVKLEESGGGLVQPGGSLKISCAASGFDFSRYWMSWVRQAPGKGLEWIGEINPDSSTINYTPSLRDKFIISRDNAKNTLYLQMSKVRYEDTSLYYCARQGDYWGQGTSVTVSS
VL: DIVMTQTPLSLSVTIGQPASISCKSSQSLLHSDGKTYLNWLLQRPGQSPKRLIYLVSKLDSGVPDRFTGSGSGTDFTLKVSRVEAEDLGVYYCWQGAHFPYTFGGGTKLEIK
notes: murine VH of G7mAb (G7mAb-VH); human heavy-chain constant region of the chimeric antibody; murine VL of G7mAb (G7mAb-VL); human light-chain constant region of the chimeric antibody; Chimeric: murine G7mAb variable domains on human constant regions; The vectors of the laboratory hold IgG1 H and L chains and the constant region of the humanized antibodies is from Cetuximab; also called parental …
In the assay with CD24-GST, B1 showed a Kd of 0.191 nM, a koff of 0.000336 s⁻¹ and a kon of 1.76e+06 M⁻¹ s⁻¹. Also, in assay [1], the “binding rate to BEL-7402 cells” value stood at 79.3% and the “binding rate to Huh-7 cells” value turned out to be 88.4%.

B2: hG7-BM3 (hVH-B2, hVL-B1) (antibody, V domains shown)
VH: QVQLVESGGGVVQPGRSLRLSCAASGFTFSRYWMSWVRQAPGKGLEWIAEINPDSSTINYTPSLRDKFTISRDNSKNTLYLQMSSLRAEDTAVYYCARQGDYWGQGTLVTVSS
VL: DIVMTQTPLSLSVTPGQPASISCKSSQSLLHSDGKTYLNWYLQKPGQSPQRLIYLVSKLDSGVPDRFSGSGSGTDFTLKISRVEAEDVGVYYCWQGAHFPYTFGQGTKLEIK
In the assay with CD24-GST, B2 registered a dissociation constant Kd of 0.57 nM.

As usually defined, the Kd is the concentration at which binding is half-saturated. One may read the koff as a measure of how fast the partners let go of each other. Read a low koff as slow dissociation. What is called kon is the rate constant with which the complex forms.

These data come from publication PMC5584245 (Oncotarget, 2017).
